Patent US11255842B2, “Methods for detecting neutralizing antibodies to parathyroid hormone (PTH) and parathyroid hormone-related peptide (PTHRP) analog” (Radius Health, Inc., priority 2019, dated 2022)

How the values were obtained:
[1] = in vivo; cited from earlier work
[2] = molecular target: T1, PTH1R (Rattus norvegicus, UniProt P25961); test: PTH dose response, cAMP induction in UMR-106 cells in 25% pooled human serum; type: cell-based; details: interpolated from curve fit, rounded
T1 construct: any cells that express PTH1R and allows the induction of cAMP signaling; host or cells: UMR-106 rat osteosarcoma cells
T1 sequence (P25961 27-591): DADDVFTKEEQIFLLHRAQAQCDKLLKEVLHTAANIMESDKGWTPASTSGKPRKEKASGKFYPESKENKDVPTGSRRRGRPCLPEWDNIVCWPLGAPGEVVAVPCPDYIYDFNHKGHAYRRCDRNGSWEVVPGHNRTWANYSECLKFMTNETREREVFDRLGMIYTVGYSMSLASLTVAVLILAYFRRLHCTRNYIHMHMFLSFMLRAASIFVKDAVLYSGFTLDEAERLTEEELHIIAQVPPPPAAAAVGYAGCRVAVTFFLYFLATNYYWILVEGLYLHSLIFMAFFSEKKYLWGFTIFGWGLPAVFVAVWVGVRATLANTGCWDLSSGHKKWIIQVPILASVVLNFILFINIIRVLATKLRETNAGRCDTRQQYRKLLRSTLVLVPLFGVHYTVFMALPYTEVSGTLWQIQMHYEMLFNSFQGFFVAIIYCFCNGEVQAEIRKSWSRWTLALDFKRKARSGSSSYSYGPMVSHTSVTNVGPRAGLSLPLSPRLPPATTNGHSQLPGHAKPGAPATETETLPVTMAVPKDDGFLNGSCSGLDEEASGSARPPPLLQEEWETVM
Description: (§1) UMR-106 cells are maintained in growth medium (UMR-GM, Dulbecco's Modified Eagle's Medium (DMEM) containing 10% Fetal Bovine Serum, 1% Pen-Strep (10 k units Penicillin—10 k ug/mL Streptomycin) and 1% L-glutamine) in 75-150 cm^2 tissue culture flasks until ready for use. Cells are split at a ratio between 1:4 and 1:20 when growth reaches ≥70% confluence for routing culture maintenance. Prior to initiating an assay, cells are plated in sub-culturing flasks (25 cm^2 to 150 cm^2) at a density of 10^6 cells/5 cm^2 (example 5e6 cells for T-75). The following day, flasks are starved with assay medium (UMR-Am, Phenol Red-Free DMEM, containing 1% Bovine Serum Albumin). The following day validation samples and antibody controls are pre-incubated with PTH peptide for a minimum of 30 minutes. The validation samples and controls are adjusted such that the final assay concentration of serum is equal to the assay minimum required dilution of 1:4. Twenty microliters of samples and/or controls are placed on a MSD cAMP assay plate. […] Forty microliters of the cell suspension are added to the cAMP assay plate. […] One hundred microliters of 2×MSD Read Buffer T are then added to the plates and plates are read immediately on an MSD 6000 or 56000 Sector Imager. […]

[3] = molecular target: T1, PTH1R; test: PTHrP dose response, cAMP induction in UMR-106 cells; type: cell-based; details: interpolated from curve fit, rounded
Description: as §1, with “PTHrP” for “PTH peptide”, “S6000” for “56000”

Abaloparatide: parathyroid hormone-related peptide (PTHrP) (1-34) analog which acts as a PTH1 receptor (PTH1R) agonist
antibody-positive patients who developed neutralizing antibodies to Abaloparatide [1]: 68% | patients who developed anti-Abaloparatide antibodies [1]: 49% | patients who developed cross-reactivity to PTHrP [1]: 2.3% | patients who developed cross-reactivity to parathyroid hormone (PTH) [1]: 0% | patients who developed neutralizing antibodies to PTHrP [1]: 43%

PTH: Parathyroid Hormone Peptide (1-34)(Human), Phoenix Pharmaceuticals P/N 055-08
EC20 of the PTH response [2]: 0.728 ng/mL | EC30 of the PTH response [2]: 0.436 ng/mL

PTHrP: PTHrP (1-34)(Human, Rat, Mouse) peptide, Phoenix Pharmaceuticals P/N 056-04
EC20 of the PTHrP response [3]: 0.728 ng/mL | EC30 of the PTHrP response [3]: 0.436 ng/mL
